One block for each molecule: values may come before it.
What was measured:
[1] = molecular target: Methanospirillum hungatei phosphoribulokinase (MhPRK) (Methanospirillum hungatei); experiment: crystal structure; hanging-drop vapour diffusion at 20 °C; 2.5 Å; the asymmetric unit holds two MhPRK protomers (chains A and B) related by approximately two-fold noncrystallographic symmetry
[2] = molecular target: T1, M. hungatei RuBisCO (Mh-RuBisCO) (Methanospirillum hungatei, UniProt Q2FSY4); experiment: coupled PGK / GAPDH carboxylase assay, NADH at […] nm; turnover only; assay type: biochemical; details: 2 mM RuBP, 50 mM NaHCO3, 20 mM MgCl2, pH 8.0, 25 °C, anaerobic
T1 construct: gene rbcL; recombinant in E. coli C43 (DE3), pET-15b, His6 tag cleaved by thrombin

purified protein [3] = substrate: Nc1ncnc2c1ncn2[C@@H]1O[C@H](COP(=O)(O)OP(=O)(O)OP(=O)(O)O)[C@@H](O)[C@H]1O; experiment: purified protein; assay type: biochemical, Methanothrix thermoacetophila; details: co-substrate Ru5P (2 mM), 10 mM MgCl2, 100 mM KCl, pH 8.0, 25 °C
purified protein [4] = substrate: O=C(CO)[C@H](O)[C@H](O)COP(=O)(O)O; experiment: purified protein; assay type: biochemical, Methanothrix thermoacetophila; details: co-substrate ATP (2 mM), 10 mM MgCl2, 100 mM KCl, pH 8.0, 25 °C
purified protein [5] = substrate: Nc1ncnc2c1ncn2[C@@H]1O[C@H](COP(=O)(O)OP(=O)(O)OP(=O)(O)O)[C@@H](O)[C@H]1O; experiment: purified protein; assay type: biochemical, Methanothrix soehngenii; details: co-substrate Ru5P (2 mM), 10 mM MgCl2, 100 mM KCl, pH 8.0, 25 °C
purified protein [6] = substrate: O=C(CO)[C@H](O)[C@H](O)COP(=O)(O)O; experiment: purified protein; assay type: biochemical, Methanothrix soehngenii; details: co-substrate ATP (2 mM), 10 mM MgCl2, 100 mM KCl, pH 8.0, 25 °C
purified protein [7] = substrate: Nc1ncnc2c1ncn2[C@@H]1O[C@H](COP(=O)(O)OP(=O)(O)OP(=O)(O)O)[C@@H](O)[C@H]1O; experiment: purified protein; assay type: biochemical, Methanospirillum hungatei; details: co-substrate Ru5P (2 mM), 10 mM MgCl2, 100 mM KCl, pH 8.0, 25 °C
purified protein [8] = substrate: O=C(CO)[C@H](O)[C@H](O)COP(=O)(O)O; experiment: purified protein; assay type: biochemical, Methanospirillum hungatei; details: co-substrate ATP (2 mM), 10 mM MgCl2, 100 mM KCl, pH 8.0, 25 °C

T1 sequence (Q2FSY4 entry or part of it): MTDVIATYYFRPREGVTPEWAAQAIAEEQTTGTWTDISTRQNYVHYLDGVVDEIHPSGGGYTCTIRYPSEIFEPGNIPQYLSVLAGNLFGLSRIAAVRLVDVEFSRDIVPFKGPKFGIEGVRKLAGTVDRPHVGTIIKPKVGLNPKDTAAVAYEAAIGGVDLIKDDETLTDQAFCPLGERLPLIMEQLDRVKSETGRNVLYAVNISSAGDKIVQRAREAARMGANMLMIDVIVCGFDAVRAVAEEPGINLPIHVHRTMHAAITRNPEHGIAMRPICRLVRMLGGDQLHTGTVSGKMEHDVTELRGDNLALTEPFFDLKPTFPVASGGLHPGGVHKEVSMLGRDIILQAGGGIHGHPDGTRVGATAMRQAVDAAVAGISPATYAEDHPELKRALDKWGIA

- stoichiometry N [1]: 2
Molecule: Methanospirillum hungatei phosphoribulokinase (MhPRK) (enzyme)

Molecule: O=C(COP(=O)(O)O)[C@H](O)[C@H](O)COP(=O)(O)O [RuBP]
- coupled PGK / GAPDH carboxylase assay, NADH at 340 nm; turnover only [2]: M. hungatei RuBisCO was found to have a specific activity for the carboxylase reaction

B1: Methanosaeta thermophila PRK homologue (Mtprk) (Methanothrix thermoacetophila PT) (protein)
chain: MRLLEKIRESGRVFVVAVAGDSGSGKTTFTRGIRRLLGEDVVSTFSMDDYHSLDRRQRKTLGITPLRPEANRFDLLAEHLAMLRRGLAIEKPVYDHTTGEIRGPVIFKPSPVIIVEGLHPFYTEELRKLSDFKIFVDPSRAVKRRWKLRRDVGERGYAPEDVMREILEREPDYKLYVDVQKVYAEMVIKIQDSRIPPEWTEIARGSAREKYSVRIIQQILDHPLDEVDLTIDLSRIMRLTEREFSIEFQRDDYYGKRVGVMTLDGEFPLTMIKDLERKLCDFLGRDVPSVTEGCQEDHGSYVNATEMTQLILIWRFLEKIANLAW
notes: recombinant in E. coli C43 (DE3), pET15b, His6 tag, purified as MhPRK (thrombin-cleaved)
- Km (purified protein [3]): 5.66 ± 0.21 µM
- Km (purified protein [4]): 230 ± 50 µM

B2: Methanosaeta concilii PRK homologue (Mcprk) (Methanothrix soehngenii GP6) (protein)
chain: MRSLKDRIRESGRVFVFGIAGDSGSGKTTISRGIRRILGEDMVATFSMDDYHSLDRRQRKERNITPLHPDANQFDLLAEHLEALRRNERIDKPVYDHRTGEISGTVPFGPAPVIIVEGLHPLYTERLRSQIDFKIFVDPSRSVKRLWKIRRDVGERGYETGQVMAEILQREPDYKLYVDIQKIYAQIVIKIQDSRFHPSLLDSQSTLDWYSVRLIMEIMEHPVSEVSMNIDLSKILRRSEHEFSIEFQRDDYYGKRVGIMTMDGEIHQSMISDLEKKLGESLGTDGMISDRREEYVNAIGLAQLILTWNCVEKLDYLLQEEGY
notes: as for B1
- Km (purified protein [5]): 17.91 ± 2.02 µM
- Km (purified protein [6]): 310 ± 80 µM

B3: MhPRK (M. hungatei PRK homologue) (Methanospirillum hungatei JF-1) (protein)
chain: MSQPENFREVIRHSPLVYLIGVAGDSGSGKSTFTRAISDIFGEELVSSITVDDYHLYDRKTRSEMGITPLLHTANNLKLLEENLMDLKAGRTIQKPVYLHDHGTFGEPELFSPTKFIIIEGLHPYATKSLRALYDYTIFVDPERDVKYDWKIRRDMKKRNYDKNEVLREILQREPDYFQYVFPQREVADAVIQISYSSYGKEEGEKRNVYRVMLSMPAQEYCFEDIELNIDLCDLFKKSSHDFSLSCISHTPDSRNMRALVVDGELMPDTIHKIERQIEFQTGISPINIFRGQEHITGTDLVRLILSWQIINGRIALSNHLDQ
notes: recombinant in E. coli C43 (DE3), pET-15b, His6 tag cleaved by thrombin; homodimer; residues up to 323
- Km (purified protein [7]): 20.70 ± 1.70 µM
- Km (purified protein [8]): 280 ± 50 µM
